In IntAct's records for PubMed 20676127:

B1: Inhibitor of growth protein 2 (Homo sapiens), Q9H160 (parent)
chain: MLGQQQQQLYSSAALLTGERSRLLTCYVQDYLECVESLPHDMQRNVSVLRELDNKYQETLKEIDDVYEKYKKEDDLNQKKRLQQLLQRALINSQELGDEKIQIVTQMLELVENRARQMELHSQCFQDPAESERASDKAKMDSSQPERSSRRPRRQRTSESRDLCHMANGIEDCDDQPPKEKKSKSAKKKKRSKAKQEREASPVEFAIDPNEPTYCLCNQVSYGEMIGCDNEQCPIEWFHFSCVSLTYKPKGKWYCPKCRGDNEKTMDKSTEKTKKDRRSR
partner: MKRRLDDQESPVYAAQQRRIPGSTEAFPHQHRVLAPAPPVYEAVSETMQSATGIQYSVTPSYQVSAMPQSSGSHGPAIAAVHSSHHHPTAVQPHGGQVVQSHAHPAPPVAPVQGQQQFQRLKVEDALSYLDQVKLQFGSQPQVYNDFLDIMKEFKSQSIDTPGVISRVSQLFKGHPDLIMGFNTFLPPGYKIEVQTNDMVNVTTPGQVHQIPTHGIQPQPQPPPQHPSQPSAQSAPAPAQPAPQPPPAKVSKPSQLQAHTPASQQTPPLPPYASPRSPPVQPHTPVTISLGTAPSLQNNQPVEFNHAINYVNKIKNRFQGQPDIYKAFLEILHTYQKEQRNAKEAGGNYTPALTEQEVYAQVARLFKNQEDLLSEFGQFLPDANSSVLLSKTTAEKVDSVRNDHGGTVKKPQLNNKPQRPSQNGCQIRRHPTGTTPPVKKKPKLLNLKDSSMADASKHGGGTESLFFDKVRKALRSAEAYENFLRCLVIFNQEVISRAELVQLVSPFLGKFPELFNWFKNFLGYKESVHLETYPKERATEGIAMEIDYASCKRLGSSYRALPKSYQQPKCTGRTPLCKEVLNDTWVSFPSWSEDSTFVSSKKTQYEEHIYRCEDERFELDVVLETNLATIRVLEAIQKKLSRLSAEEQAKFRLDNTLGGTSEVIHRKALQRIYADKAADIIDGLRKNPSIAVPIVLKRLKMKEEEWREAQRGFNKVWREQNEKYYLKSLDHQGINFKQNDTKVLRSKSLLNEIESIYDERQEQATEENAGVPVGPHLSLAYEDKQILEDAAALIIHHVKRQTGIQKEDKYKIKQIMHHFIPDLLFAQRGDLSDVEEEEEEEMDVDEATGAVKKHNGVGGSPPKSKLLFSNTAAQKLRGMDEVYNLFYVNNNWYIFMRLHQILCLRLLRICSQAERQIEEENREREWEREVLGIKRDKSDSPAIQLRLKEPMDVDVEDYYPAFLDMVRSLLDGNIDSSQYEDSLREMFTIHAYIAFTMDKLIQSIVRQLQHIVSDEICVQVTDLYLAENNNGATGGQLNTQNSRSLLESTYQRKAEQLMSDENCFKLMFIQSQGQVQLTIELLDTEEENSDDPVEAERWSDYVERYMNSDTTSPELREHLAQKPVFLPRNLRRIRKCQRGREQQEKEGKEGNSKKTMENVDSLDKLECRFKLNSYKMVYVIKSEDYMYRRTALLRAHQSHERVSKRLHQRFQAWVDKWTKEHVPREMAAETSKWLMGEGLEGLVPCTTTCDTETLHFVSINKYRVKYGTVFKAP

Variants of: B1
Settings: with sin3a_human SIN3A

effect of a mutation on the interaction	Variant
decreasing interaction	E197A
decreasing interaction	K195R
